Laboratory results from patent US7485712.

Experiments:
[1] = biological target: microtubules assembled from porcine brain PC-tubulin (not taxol-stabilised) (porcine) (UniProt P02550); assay: cell-based or functional assay
[2] = biological target: taxol-stabilised microtubules (porcine brain tubulin) (porcine) (UniProt P02550); assay: binding to taxol stabilized microtubules (30 µM tubulin dimers) after p110MARK phosphorylation
[3] = biological target: taxol-stabilised microtubules (porcine brain tubulin) (porcine) (UniProt P02550); assay: binding to taxol stabilized microtubules (30 µM tubulin dimers), binding curve

Chain of MAP4, phosphorylated with NPK-110 (P27546 630-1125): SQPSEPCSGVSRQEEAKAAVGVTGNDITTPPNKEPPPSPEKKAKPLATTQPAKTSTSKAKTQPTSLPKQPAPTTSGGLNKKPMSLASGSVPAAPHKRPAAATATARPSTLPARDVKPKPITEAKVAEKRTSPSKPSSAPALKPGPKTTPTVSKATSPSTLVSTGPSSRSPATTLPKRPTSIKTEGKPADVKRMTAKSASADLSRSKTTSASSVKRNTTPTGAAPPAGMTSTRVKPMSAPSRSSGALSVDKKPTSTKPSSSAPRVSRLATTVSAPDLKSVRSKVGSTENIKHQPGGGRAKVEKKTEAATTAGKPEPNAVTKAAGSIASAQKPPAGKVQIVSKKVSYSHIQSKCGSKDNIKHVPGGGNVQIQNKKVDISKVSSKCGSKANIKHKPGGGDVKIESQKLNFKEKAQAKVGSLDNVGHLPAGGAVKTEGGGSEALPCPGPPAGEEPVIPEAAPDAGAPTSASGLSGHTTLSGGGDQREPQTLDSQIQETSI

mean length of microtubules, against the control without ATP (fold of control) [1] | Kd [2] | Substance | further results
0.5 |  | MAP2, phosphorylated with NPK-110 | 
 | 7 µM | MAP2cA319, phosphorylated with p110MARK | 
 | 7 µM | MAP2cA350, phosphorylated with p110MARK | 
0.5 |  | MAP4, phosphorylated with NPK-110 | 
 |  | recombinant wild type MAP2c, non-phosphorylated | Kd [3]: 0.25 µM; saturation [3]: 17 µM; stoichiometry (MAP2c molecules per tubulin dimer) [3]: 0.5
0.5 |  | recombinant wild type MAP2c, phosphorylated with p110MARK (NPK-110) | 
